Test results from patent publication US20230322944A1.

Molecular target: cynomolgus monkey CD122 on NK cells (cynomolgus monkey) (UniProt Q38J85)
Experiment: flow cytometry of blood from cynomolgus monkeys after a single IV dose of 1 mg/kg

cynomolgus monkey CD122 on NK cells (cynomolgus monkey), sequence (Q38J85 27-551 limits assumed): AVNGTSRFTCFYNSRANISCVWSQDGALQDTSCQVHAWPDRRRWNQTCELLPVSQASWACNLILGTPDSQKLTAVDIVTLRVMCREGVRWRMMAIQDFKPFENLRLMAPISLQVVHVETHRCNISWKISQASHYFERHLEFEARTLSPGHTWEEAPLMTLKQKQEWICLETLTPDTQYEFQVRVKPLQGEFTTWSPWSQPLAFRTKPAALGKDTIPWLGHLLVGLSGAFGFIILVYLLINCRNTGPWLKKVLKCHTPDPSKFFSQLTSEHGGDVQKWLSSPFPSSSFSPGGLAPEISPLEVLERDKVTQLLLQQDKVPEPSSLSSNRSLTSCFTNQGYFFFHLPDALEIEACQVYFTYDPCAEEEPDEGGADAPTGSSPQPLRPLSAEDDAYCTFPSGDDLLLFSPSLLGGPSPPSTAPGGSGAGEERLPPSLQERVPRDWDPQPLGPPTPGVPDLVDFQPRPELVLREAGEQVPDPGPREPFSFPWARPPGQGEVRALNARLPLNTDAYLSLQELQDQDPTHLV

CD122 receptor occupancy on NK cells [%]	Binder
> 90	MAB05 (antibody, V domains shown) VH: EVQLLESGGGLVQPGGSLRLSCAASGFTVTSYAVHWVRQAPGKGLEWLGVIWSGGSTDYNAAFISRLTISKDNSKNTVYFQMNSLRAEDTAVYYCARAGDANYDGFAYWGQGTLVTVSS VL: DIQMTQSPSSLSASVGDRVTITCQASQSVSFLYWYQQRPGKAPRLLIYDTSNLASGVPSRFSGSGSGTSYTFTISSLQPEDIATYYCQQWSTYPLTFGQGTKVEIK
> 90	MAB06 (antibody, V domains shown) VH: EVQLLESGGGLVQPGGSLRLSCAASGFTVTSYAVHWVRQAPGKGLEWLGVIWSGGSTDYNAAFISRLTISKDNSKNTVYFQMNSLRAEDTAVYYCARAGDANYDGFAYWGQGTLVTVSS VL: DIQMTQSPSSLSASVGDRVTITCQASSSVSFMYWYQQRPGKAPRLLIYDTSNLASGVPSRFSGSGSGTSYTFTISSLQPEDIATYYCQQWSTYPLTFGQGTKVEIK
